Experiments:
[1] = substrate: Nc1nc(O)cc(-c2cncn2C2O[C@H](CO)[C@@H](O)[C@H]2O)n1; assay: Enzyme kinetic constant for S-adenosyl-L-homocysteine hydrolase; Not a substrate
[2] = substrate: Nc1nc(O)cc(-c2cncn2C2O[C@H](CO)[C@@H](O)[C@H]2O)n1; assay: Enzyme kinetic constant for S-adenosyl-L-homocysteine hydrolase in hydrolysis direction
[3] = substrate: Nc1cc(-c2cncn2C2O[C@H](CO)[C@@H](O)[C@H]2O)ncn1; assay: (§1) Enzyme kinetic constant for S-adenosyl-L-homocysteine hydrolase
[4] = substrate: Nc1nc2c(ncn2[C@@H]2O[C@H](CO)[C@@H](O)[C@H]2O)c(=O)[nH]1; assay: as §1
[5] = substrate: Nc1ncnc2c1ncn2[C@@H]1O[C@H](CO)[C@@H](O)[C@H]1O; assay: as §1
[6] = substrate: O=c1[nH]cnc2c1ncn2[C@@H]1O[C@H](CO)[C@@H](O)[C@H]1O; assay: as §1
[7] = substrate: OC[C@H]1OC(n2cncc2-c2cc(O)ncn2)[C@H](O)[C@@H]1O; assay: as §1

B1: Adenosylhomocysteinase (Homo sapiens), P23526 (protein)
chain: MSDKLPYKVADIGLAAWGRKALDIAENEMPGLMRMRERYSASKPLKGARIAGCLHMTVETAVLIETLVTLGAEVQWSSCNIFSTQDHAAAAIAKAGIPVYAWKGETDEEYLWCIEQTLYFKDGPLNMILDDGGDLTNLIHTKYPQLLPGIRGISEETTTGVHNLYKMMANGILKVPAINVNDSVTKSKFDNLYGCRESLIDGIKRATDVMIAGKVAVVAGYGDVGKGCAQALRGFGARVIITEIDPINALQAAMEGYEVTTMDEACQEGNIFVTTTGCIDIILGRHFEQMKDDAIVCNIGHFDVEIDVKWLNENAVEKVNIKPQVDRYRLKNGRRIILLAEGRLVNLGCAMGHPSFVMSNSFTNQVMAQIELWTHPDKYPVGVHFLPKKLDEAVAEAHLGKLNVKLTKLTEKQAQYLGMSCDGPFKPDHYRY
Km [1]: Not a substrate
Km [2]: 6.6 µM
Km [3]: 54.4 µM
Km [4]: 844 µM
Km [5]: 0.82 µM
Km [6]: 2.5 µM
Km [7]: 421 µM
